From US20050287608A1

How the values were obtained:
[1] = molecular target: ubiquitinated proteins of yeast cells; test: Flag purification from yeast cells, anti-Ub immunoblot
[2] = molecular target: ubiquitinated proteins of yeast cells; test: Flag-Rad23 precipitation from yeast extracts, anti-Ub immunoblot, adjusted for the amount of Flag-Rad23 precipitated

B1: Flag-rad23^uba2 (yeast Rad23 L392A, amino-terminal Flag epitope) (protein, yeast (Saccharomyces cerevisiae), UniProt P32628 1-398, looked up, not shown: small tags and cut ends)
chain: MVSLTFKNFKKEKVPLDLEPSNTILETKTKLAQSISCEESQIKLIYSGKVLQDSKTVSECGLKDGDQVVFMVSQKKSTKTKVTEPPIAPESATTPGRENSTEASPSTDASAAPAATAPEGSQPQEEQTATTERTESASTPGFVVGTERNETIERIMEMGYQREEVERALRAAFNNPDRAVEYLLMGIPENLRQPEPQQQTAAAAEQPSTAATTAEQPAEDDLFAQAAQGGNASSGALGTTGGATDAAQGGPPGSIGLTVEDLLSLRQVVSGNPEALAPLLENISARYPQLREHIMANPEVFVSMLLEAVGDNMQDVMEGADDMVEGEDIEVTGEAAAAGLGQGEGEGSFQVDYTPEDDQAISRLCELGFERDLVIQVYFACDKNEEAAANIAFSDHAD
decrease of binding, against Flag-Rad23 [1]: 20%

B2: Flag-Rad23 (yeast Rad23 with an amino-terminal Flag epitope) (protein, yeast (Saccharomyces cerevisiae), UniProt P32628 1-398, looked up, not shown: small tags and cut ends)
chain: MVSLTFKNFKKEKVPLDLEPSNTILETKTKLAQSISCEESQIKLIYSGKVLQDSKTVSECGLKDGDQVVFMVSQKKSTKTKVTEPPIAPESATTPGRENSTEASPSTDASAAPAATAPEGSQPQEEQTATTERTESASTPGFVVGTERNETIERIMEMGYQREEVERALRAAFNNPDRAVEYLLMGIPENLRQPEPQQQTAAAAEQPSTAATTAEQPAEDDLFAQAAQGGNASSGALGTTGGATDAAQGGPPGSIGLTVEDLLSLRQVVSGNPEALAPLLENISARYPQLREHIMANPEVFVSMLLEAVGDNMQDVMEGADDMVEGEDIEVTGEAAAAGLGQGEGEGSFQVDYTPEDDQAISRLCELGFERDLVIQVYFACDKNEEAAANILFSDHAD
fold increase of the interaction after treatment with 4-NQO, against untreated cells [2]: 2 fold

B3: Flag-rad23^uba1uba2 (yeast Rad23 with mutations in both UBA domains, amino-terminal Flag epitope) (protein, yeast (Saccharomyces cerevisiae), UniProt P32628 1-398, looked up, not shown: small tags and cut ends)
chain: MVSLTFKNFKKEKVPLDLEPSNTILETKTKLAQSISCEESQIKLIYSGKVLQDSKTVSECGLKDGDQVVFMVSQKKSTKTKVTEPPIAPESATTPGRENSTEASPSTDASAAPAATAPEGSQPQEEQTATTERTESASTPGFVVGTERNETIERIMEMGYQREEVERALRAAFNNPDRAVEYALMGIPENLRQPEPQQQTAAAAEQPSTAATTAEQPAEDDLFAQAAQGGNASSGALGTTGGATDAAQGGPPGSIGLTVEDLLSLRQVVSGNPEALAPLLENISARYPQLREHIMANPEVFVSMLLEAVGDNMQDVMEGADDMVEGEDIEVTGEAAAAGLGQGEGEGSFQVDYTPEDDQAISRLCELGFERDLVIQVYFACDKNEEAAANIAFSDHAD
interaction remaining, compared to the wildtype protein [1]: 1%
